In assay [1] the target is purified human airway mucins. Kind of assay: ELISA; purified mucins coated on NUNC Maxisorp plate overnight at 4 °C, 20 μg/mL, carbonate-bicarbonate buffer pH 9.6; FLAG-ITLN-1 10 μg/mL for 2 hours in binding buffer B (TBS, 3 mM CaCl3, 1% BSA, 0.05% Tween-20, 50 mM EDTA); anti-FLAG HRP, absorbance 450 nm; also with galactose 100 mM, heparin 150 μg/mL or dextran sulfate 150 μg/mL.

In assay [2] the target is T1, FLAG-tagged recombinant ITLN-1 (human, UniProt Q8WWA0 19-298).
T1 construct: intelectin-1 (ITLN-1), human, recombinant; also called intelectin-1; recombinant human ITLN-1 protein; source: bought: Sigma, SRP8047
The assay can be described thus: ELISA; C-terminal recombinant peptide coated on NUNC Maxisorp plate overnight at 4 °C, 20 μg/mL, carbonate-bicarbonate buffer pH 9.6; FLAG-ITLN-1 10 μg/mL for 2 hours in binding buffer A (TBS, 3 mM CaCl3, 1% BSA, 0.05% Tween-20); anti-FLAG HRP, absorbance 450 nm; also with heparin 150 μg/mL. To be noted: both partners purified. On the technique in general: ELISA stands for enzyme-linked immunosorbent assay.

These results are taken from article PMC11082194, “A common polymorphism in the Intelectin-1 gene influences mucus plugging in severe asthma” (Nature Communications, 2024).

Take “FLAG-tagged recombinant ITLN-1 (from UniProt Q8WWA0 19-298) (natural protein)”: in assay [1], the percent decrease of binding with dextran sulfate (150 μg/mL) worked out at 74% and the percent decrease of binding with heparin (150 μg/mL) is 51.9%.

B1: MUC5AC C-terminal recombinant peptide (AA5568-AA5654) (domain or fragment, human, UniProt P98088 5568-5654, looked up)
chain: YSLEGNTVEHRCQCCQELRTSLRNVTLHCTDGSSRAFSYTEVEECGCMGRRCPAPGDTQHSEEAEPEPSQEAESGSWERGVPVSPMH
notes: MUC5AC mucin, human, C-terminal recombinant peptide, residues 5568-5654; also called C-terminal MUC5AC; C-terminal peptide of MUC5AC; source: bought: Mybiosource, #MBS2009104
As for B1, the binding result in assay [2] is recorded as “binds”.
